To fix the notation:
T1: human EphA7 (Homo sapiens, UniProt Q15375)
T1 construct: a protein of the extracellular region of each human Eph receptor fused with the SEAP protein and the His tag; made in house; host or cells: Expi293F cells (culture supernatant)
T1 sequence (Q15375 28-555 limits assumed): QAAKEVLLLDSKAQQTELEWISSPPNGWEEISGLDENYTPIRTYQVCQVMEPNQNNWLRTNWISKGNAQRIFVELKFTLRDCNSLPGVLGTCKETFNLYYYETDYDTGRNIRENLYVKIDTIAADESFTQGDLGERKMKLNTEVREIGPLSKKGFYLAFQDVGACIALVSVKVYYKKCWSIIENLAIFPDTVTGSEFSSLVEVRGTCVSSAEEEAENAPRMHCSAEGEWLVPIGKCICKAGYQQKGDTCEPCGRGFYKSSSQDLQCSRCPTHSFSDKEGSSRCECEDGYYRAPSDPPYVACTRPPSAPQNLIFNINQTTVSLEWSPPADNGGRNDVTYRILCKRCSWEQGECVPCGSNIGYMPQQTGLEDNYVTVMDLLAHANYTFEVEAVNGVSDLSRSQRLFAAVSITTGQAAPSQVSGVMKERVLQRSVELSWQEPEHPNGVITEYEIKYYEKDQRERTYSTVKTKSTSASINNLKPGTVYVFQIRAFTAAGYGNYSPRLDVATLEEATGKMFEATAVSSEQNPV

T2: human EphA8 (Homo sapiens, UniProt P29322)
T2 construct: a protein of the extracellular region of each human Eph receptor fused with the SEAP protein and the His tag; made in house; host or cells: Expi293F cells (culture supernatant)
T2 sequence (P29322 28-542 limits assumed): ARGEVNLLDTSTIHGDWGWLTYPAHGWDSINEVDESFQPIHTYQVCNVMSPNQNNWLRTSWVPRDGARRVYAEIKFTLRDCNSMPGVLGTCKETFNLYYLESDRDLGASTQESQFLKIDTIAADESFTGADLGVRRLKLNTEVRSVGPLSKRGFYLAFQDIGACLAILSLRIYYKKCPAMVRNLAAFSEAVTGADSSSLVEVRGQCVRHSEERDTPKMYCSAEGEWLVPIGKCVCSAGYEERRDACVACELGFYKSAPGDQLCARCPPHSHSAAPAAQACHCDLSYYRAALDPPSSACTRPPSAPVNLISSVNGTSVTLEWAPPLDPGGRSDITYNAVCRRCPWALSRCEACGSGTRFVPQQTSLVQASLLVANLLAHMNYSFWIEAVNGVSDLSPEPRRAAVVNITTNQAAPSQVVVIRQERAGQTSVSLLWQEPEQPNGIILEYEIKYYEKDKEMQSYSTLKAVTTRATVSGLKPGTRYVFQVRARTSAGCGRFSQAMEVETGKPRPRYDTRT

T3: human EphB4 (Homo sapiens, UniProt P54760)
T3 construct: a protein of the extracellular region of each human Eph receptor fused with the SEAP protein and the His tag; made in house; host or cells: Expi293F cells
T3 sequence (P54760 16-539 limits assumed): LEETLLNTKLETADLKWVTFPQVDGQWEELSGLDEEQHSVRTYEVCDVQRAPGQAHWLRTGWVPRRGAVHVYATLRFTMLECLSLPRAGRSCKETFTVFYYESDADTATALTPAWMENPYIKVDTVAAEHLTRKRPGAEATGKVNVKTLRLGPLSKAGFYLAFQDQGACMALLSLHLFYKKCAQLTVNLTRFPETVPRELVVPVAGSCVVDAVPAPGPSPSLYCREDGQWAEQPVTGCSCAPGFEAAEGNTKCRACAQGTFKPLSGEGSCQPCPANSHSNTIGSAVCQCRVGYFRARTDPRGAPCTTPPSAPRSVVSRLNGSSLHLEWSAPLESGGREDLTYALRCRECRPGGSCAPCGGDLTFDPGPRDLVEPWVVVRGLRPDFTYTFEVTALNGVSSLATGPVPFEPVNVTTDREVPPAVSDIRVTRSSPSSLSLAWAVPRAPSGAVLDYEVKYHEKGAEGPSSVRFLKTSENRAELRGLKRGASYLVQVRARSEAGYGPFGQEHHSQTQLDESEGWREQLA

B1: 139 (antibody)
VH: QVQLVQSGSELKKPGASVKVSCKASGYTFTDYSMHWVRQAPGQGLEWMGWINTETGEPTYAQGFTGRFVFSLDTSVSTAYLQISSLKAEDTAVYYCARIPLYYYGSRYWYFDVWGQGTTVTVSS
VL: DIQMTQSPSSLSASVGDRVTITCRASENIYRNLAWYQQKPGKAPKLLVYAATNLADGVPSRFSGSGSGTDYTLTISSLQPEDFATYYCQHFWGTPWTFGQGTKVEIK
chain: ASTKGPSVFPLAPSSRSTSESTAALGCLVKDYFPEPVTVSWNSGALTSGVHTFPAVLQSSGLYSLSSVVTVPSSNFGTQTYTCNVDHKPSNTKVDKTVERKSCVECPPCPAPPAAAPSVFLFPPKPKDTLMISRTPEVTCVVVDVSHEDPEVQFNWYVDGVEVHNAKTKPREEQFNSTFRVVSVLTVVHQDWLNGKEYKCKVSNKGLPAPIEKTISKTKGQPREPQVYTLPPSREEMTKNQVSLTCLVKGFYPSDIAVEWESNGQPENNYKTTPPMLDSDGSFFLYSKLTVDKSRWQQGNVFSCSVMHEALHNHYTQKSLSLSPG
modifications: synthetic humanized antibody heavy chain variable region sequence; synthetic humanized antibody light chain variable region sequence; synthetic antibody constant region sequence
B2: 153 (antibody, V domains shown)
VH: B1 VH with E46K
VL: B1 VL with V48L, P80S
modifications: synthetic humanized antibody heavy chain variable region sequence; synthetic humanized antibody light chain variable region sequence
B3: 143 (antibody, V domains shown)
VH: B1 VH with V2I, E46K, Q62D, G63D, T65K
VL: B1 VL
modifications: synthetic humanized antibody heavy chain variable region sequence; synthetic humanized antibody light chain variable region sequence
B4: 141 (antibody, V domains shown)
VH: B1 VH with Q62D, G63D, T65K
VL: B1 VL
modifications: synthetic humanized antibody heavy chain variable region sequence; synthetic humanized antibody light chain variable region sequence
B5: 138 (antibody, V domains shown)
VH: B1 VH with V2I, E46K
VL: B1 VL
modifications: synthetic humanized antibody heavy chain variable region sequence; synthetic humanized antibody light chain variable region sequence
B6: 151 (antibody, V domains shown)
VH: B1 VH with V2I, E46K
VL: B1 VL with V48L, P80S
modifications: synthetic humanized antibody heavy chain variable region sequence; synthetic humanized antibody light chain variable region sequence
B7: 142 (antibody, V domains shown)
VH: B1 VH with E46K, Q62D, G63D, T65K
VL: B1 VL
modifications: synthetic humanized antibody heavy chain variable region sequence; synthetic humanized antibody light chain variable region sequence
B8: 152 (antibody, V domains shown)
VH: B1 VH
VL: B1 VL with V48L, P80S
modifications: synthetic humanized antibody heavy chain variable region sequence; synthetic humanized antibody light chain variable region sequence
B9: 140 (antibody, V domains shown)
VH: B1 VH with E46K
VL: B1 VL
modifications: synthetic humanized antibody heavy chain variable region sequence; synthetic humanized antibody light chain variable region sequence

Changes are numbered by the printed parent chain.

The target in the first assay is SEAP-His (Homo sapiens, UniProt P05187). Put plainly: Selectivity ELISA of humanized antibodies for human Eph receptor. Particulars: coated protein 1 nM. The format is binding. The method, boiled down: (§1)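 Read-out is A450 after TMB development stopped with 1N H2SO4. Plates bore anti-His-captured human Eph extracellular region-SEAP-His proteins at 1 nM final, made in Expi293F cells. Humanized antibody binding ran 1 h at room temperature before HRP-labeled anti-IgG detection.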
SEAP-His, sequence (P05187 23-511 limits assumed): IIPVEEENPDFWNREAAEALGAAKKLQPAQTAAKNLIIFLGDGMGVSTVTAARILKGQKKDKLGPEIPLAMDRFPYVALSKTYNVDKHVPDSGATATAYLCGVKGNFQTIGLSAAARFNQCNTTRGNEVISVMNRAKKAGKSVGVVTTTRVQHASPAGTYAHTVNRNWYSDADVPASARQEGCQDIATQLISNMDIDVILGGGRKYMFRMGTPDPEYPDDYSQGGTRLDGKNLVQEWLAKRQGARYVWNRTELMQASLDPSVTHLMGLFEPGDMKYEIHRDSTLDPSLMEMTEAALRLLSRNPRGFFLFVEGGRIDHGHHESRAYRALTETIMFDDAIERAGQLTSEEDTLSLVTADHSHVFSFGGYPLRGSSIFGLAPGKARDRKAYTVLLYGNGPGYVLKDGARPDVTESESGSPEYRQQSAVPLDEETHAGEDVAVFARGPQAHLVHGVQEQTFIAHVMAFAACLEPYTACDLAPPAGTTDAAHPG
For the molecule B1, the “SEAP-His: absorbance at 450 nm, percentage with respect to hEphA4-SEAP-His as 100%” value amounted to 5.7%.
For the molecule B2, the “SEAP-His: absorbance at 450 nm, percentage with respect to hEphA4-SEAP-His as 100%” value is on record as 5.9%.
Take B3: the “SEAP-His: absorbance at 450 nm, percentage with respect to hEphA4-SEAP-His as 100%” value was 6.3%.
With B4, the “SEAP-His: absorbance at 450 nm, percentage with respect to hEphA4-SEAP-His as 100%” value is listed as 5.0%.
Consider B5, for which the “SEAP-His: absorbance at 450 nm, percentage with respect to hEphA4-SEAP-His as 100%” value is 5.1%.
The same measure, in the same setting: under B6 stands 6.8%; under B7, 5.8%; under B8, 5.4%.
Consider B9, for which the “SEAP-His: absorbance at 450 nm, percentage with respect to hEphA4-SEAP-His as 100%” value is 5.4%.

For another assay, the target named is T1, human EphA7. The description is as above. Format: binding. The settings on record: coated protein 1 nM. The gist of the method: as §1
On to B1, for which the “hEphA7-SEAP-: absorbance at 450 nm, percentage with respect to hEphA4-SEAP-His as 100%” value is recorded as 5.5%.
With B2, the “hEphA7-SEAP-: absorbance at 450 nm, percentage with respect to hEphA4-SEAP-His as 100%” value is 6.2%.
Turning to B3, the “hEphA7-SEAP-: absorbance at 450 nm, percentage with respect to hEphA4-SEAP-His as 100%” value came to 5.8%.
Same read-out and setting: the result for B4 reads 5.3%; that for B5, 4.9%.
For B6, the “hEphA7-SEAP-: absorbance at 450 nm, percentage with respect to hEphA4-SEAP-His as 100%” value amounted to 6.8%.
For the molecule B7, the “hEphA7-SEAP-: absorbance at 450 nm, percentage with respect to hEphA4-SEAP-His as 100%” value stood at 5.5%.
Turning to B8, the “hEphA7-SEAP-: absorbance at 450 nm, percentage with respect to hEphA4-SEAP-His as 100%” value was found to be 5.7%.
For the molecule B9, the “hEphA7-SEAP-: absorbance at 450 nm, percentage with respect to hEphA4-SEAP-His as 100%” value was determined as 5.2%.

The target of another assay is T2, human EphA8. The assay is described as above. The format is binding. The settings on record: coated protein 1 nM. The gist of the method: as §1
As to B1, the “hEphA8-SEAP-: absorbance at 450 nm, percentage with respect to hEphA4-SEAP-His as 100%” value worked out at 6.0%.
As for B2, the “hEphA8-SEAP-: absorbance at 450 nm, percentage with respect to hEphA4-SEAP-His as 100%” value stood at 6.1%.
In the case of B3, the “hEphA8-SEAP-: absorbance at 450 nm, percentage with respect to hEphA4-SEAP-His as 100%” value is 6.0%.
Consider B4, for which the “hEphA8-SEAP-: absorbance at 450 nm, percentage with respect to hEphA4-SEAP-His as 100%” value is 5.5%.
As to B5, the “hEphA8-SEAP-: absorbance at 450 nm, percentage with respect to hEphA4-SEAP-His as 100%” value is on record as 5.4%.
Take B6: the “hEphA8-SEAP-: absorbance at 450 nm, percentage with respect to hEphA4-SEAP-His as 100%” value turned out to be 6.9%.
Still for that read-out and setting: under B7 stands 5.7%.
Take B8: the “hEphA8-SEAP-: absorbance at 450 nm, percentage with respect to hEphA4-SEAP-His as 100%” value came out at 6.0%.
Still for that read-out and setting: under B9 stands 5.4%.

For another assay, the target named is T3, human EphB4. Described as above. Format: binding. Particulars: coated protein 1 nM. The gist of the method: as §1
B1: the “hEphB4-SEAP-: absorbance at 450 nm, percentage with respect to hEphA4-SEAP-His as 100%” value is reported as 5.7%.
As for B2, the “hEphB4-SEAP-: absorbance at 450 nm, percentage with respect to hEphA4-SEAP-His as 100%” value worked out at 6.0%.
For the molecule B3, the “hEphB4-SEAP-: absorbance at 450 nm, percentage with respect to hEphA4-SEAP-His as 100%” value is recorded as 5.9%.
On to B4, for which the “hEphB4-SEAP-: absorbance at 450 nm, percentage with respect to hEphA4-SEAP-His as 100%” value came out at 5.4%.
Turning to B5, the “hEphB4-SEAP-: absorbance at 450 nm, percentage with respect to hEphA4-SEAP-His as 100%” value is given as 5.2%.
B6: the “hEphB4-SEAP-: absorbance at 450 nm, percentage with respect to hEphA4-SEAP-His as 100%” value is on record as 7.4%.
Regarding B7, the “hEphB4-SEAP-: absorbance at 450 nm, percentage with respect to hEphA4-SEAP-His as 100%” value is given as 5.7%.
As to B8, the “hEphB4-SEAP-: absorbance at 450 nm, percentage with respect to hEphA4-SEAP-His as 100%” value is listed as 5.9%.
As for B9, the “hEphB4-SEAP-: absorbance at 450 nm, percentage with respect to hEphA4-SEAP-His as 100%” value amounted to 5.4%.

Source of the values: patent publication US10428140B2, “Anti-EphA4 antibody” (EISAI R&D MANAGEMENT CO., LTD., priority 2015, dated 2019).
